Results reported in patent publication US20130252282A1.

Columns and labels:
[1] = molecular target: Dronpa145N (Pectimidae genus coral); assay: inferred from native PAGE of 100 µM protein after cyan (about 500 nm) illumination; self-association, off-photoswitched state
Cdc42 = Cdc42 (UniProt P60766); assay: cell-based or functional assay
Sequence of UniProt P60766 (P60766 1-188 limits assumed): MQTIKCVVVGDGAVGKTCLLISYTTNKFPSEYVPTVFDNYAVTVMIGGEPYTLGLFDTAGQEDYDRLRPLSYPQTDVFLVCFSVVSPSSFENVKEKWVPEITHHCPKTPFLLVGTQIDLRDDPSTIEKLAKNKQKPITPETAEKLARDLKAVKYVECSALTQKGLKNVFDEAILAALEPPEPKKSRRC

## Dronpa145N
[1]
  Kd: > 100 µM

## K-I-N-CAAX (Dronpa145K-intersectin DH domain-Dronpa145N-CAAX) (from UniProt Q15811 1234-1428) (enzyme)
Cdc42
  basal filopodia or lamellipodia in low expressers: 8%
  cells forming abundant filopodia within 30 minutes after illumination: 90%
  cells forming filopodia, not exposed to light: 25%

## N-I-N-CAAX (Dronpa145N-intersectin DH domain-Dronpa145N-CAAX) (from UniProt Q15811 1234-1428)
Cdc42
  basal filopodia or lamellipodia in low expressers: 0%

## N-I-N-CAAX (Dronpa145N-intersectin DH domain-Dronpa145N-CAAX) (from UniProt Q15811 1234-1428) (enzyme)
Cdc42
  cells forming abundant filopodia within 30 minutes after 490/20-nm light for 30 seconds: 78%
  cells forming filopodia in the same time interval without illumination: 10%
